Assay: soluble on expression in E. coli; label from the status in PepcDB or PDB records
With “MIFTYNREHVGDTLMVIVKDSQGAKLDVDRRGQVARVYLQDSKETVAWNIFEVSSLIVIEGAGQITLSDQDIKILNAELLKEGFEDSLVNNIEPTFVVAQIKEIIDHPDSDHLHICQAEINDGKTVQIVCGAPNASVGLKTVAALPGAMMPNGSLIFPGKLRGEDSFGMLCSARELALPNAPQVRGIIELSDQVIVGESFDANKHWKNLEHHHHHH” the “soluble on expression in E. coli” value was “soluble”.
In the case of “MIFVLDVGNTNAVLGVFEEGELRQHWRMETDRHKTEDEYGMLVKQLLEHEGLSFEDVKGIIVSSVVPPIMFALERMCEKYFKIKPLVVGPGIKTGLNIKYENPREVGADRIVNAVAGIHLYGSPLIIVDFGTATTYCYINEEKHYMGGVITPGIMISAEALYSRAAKLPRIEITKPSSVVGKNTVSAMQSGILYGYVGQVEGIVKRMKEEARQEPKVIATGGLAKLISEESNVIDIVDPFLTLKGLYMLYERNANLQHEKGE”, the “soluble on expression in E. coli” value is reported as “not soluble”.
In the case of “MIGIVMLSKIANIDAARQGLDLKVKVLSLNKKTIKNDRGETTYFYGIIGDDTGTVSFTAWSFPAAVKSGDVVEIKNCYSSLYNGKIRIYVDSRSQVVLKPDEYLEVKRTVELVKLRDLSLTTPYVSVIGRISGIKEKNYDSDRGSKIVYQGFIEDETAKVRISSFGKPLKDGEIVRVENARVSQYNGYMGISIGENSSIDNVQAQIEVGSRPIFIAEIKSPIGGVTITGFAVSVGQGSRIFTKCSICKKILEDGKCKDHPRAPVYLDIFGYFLLSDGTGSLTCYLNKDSFLPYIKMDTEEFKSQAFSMNPNMLIKKNILGKCLSVTGDLRLRDDKITMNASSIKEADADSVKDIEKTIQEEFQLEHHHHHH”, the “soluble on expression in E. coli” value is reported as “not soluble”.
For “MIGNILVAHGMRKGNQNEALEEFIGTLLKDEQYYYELAFLESETQNLEIIMEKMIKQGITKFRIVPLLIFSAMHYISDIPQILKEMKARYPQIDSKMSAPLGTHPYMKTLVENRIAEEKVSEGSTKATIVIAHGNGSGRFTKAHDELKAFVKTLDSHHPVYARALYGTLAFKNDLDKISEQYDELVIVPLFLFDGRLVNKVKRLLGEMTLHSQLHITPSINFDPILRLIIRERLEALDILEHHHHHH”, the “soluble on expression in E. coli” value was “soluble”.
For “MIHLARRRIVLTTPYFVPDEATLSALRIAGTSGVDVQLILSESNNQFLMAWAQEAYFEELLRAGIKIALYRPHFLHAKHLSVDDDIALFGSINLDIRSFALNAEIGMICYDSRIVTQLREVESDYLANARQLNLVEWQQRPAWRRSREGIARLADALM”, the “soluble on expression in E. coli” value was “not soluble”.
With “MIHVGTCGFCEAREKYFKDFDAVEVQQTFYKVLQEKTLERWRKKAPEEFTFSIKAFQGVTHPSNSPTWRRSNVKPSKNVGLLRPTNEVLHYWRITLKEAKVLGARFILIQLPRSFKEGEESFENAEKFFNAIDRGDFEIGVELRGWSEKGVKRFVREFDVIDVTDPLLRIPLHKGSVNYYRLHGKYEGGKIIYNHSYSDEELKKIRERVLGWNVEESFVFFNNTSMCRDAKRFKLILDLH” the “soluble on expression in E. coli” value was “soluble”.
For “MIIDIHGHYTTAPKALEDWRNRQIAGIKDPSVMPKVSELKISDDELQASIIENQLKKMQERGSDLTVFSPRASFMAHHIGDFNVSSTWAAICNELCYRVSQLFPDNFIGAAMLPQSPGVDPKTCIPELEKCVKEYGFVAINLNPDPSGGHWTSPPLTDRIWYPIYEKMVELEIPAMIHVSTSCNTCFHTTGAHYLNADTTAFMQCVAGDLFKDFPELKFVIPHGGGAVPYHWGRFRGLAQEMKKPLLEDHVLNNIFFDTCVYHQPGIDLLNTVIPVDNVLFASEMIGAVRGIDPRTGFYYDDTKRYIEASTILTPEEKQQIYEGNARRVYPRLDAALKAKGKAAALEHHHHHH”, the “soluble on expression in E. coli” value was “not soluble”.
With “MIIGLLNQKGGVGKTTLSVNLAASFARTGARVLLIDVDPQGSALDWAAAREGAPLFPVVGLPRATVHKEITQIGHNYDHIIIDGPPRVTDLARSALMASDFVLIPVQPSPYDIWAADGIVKLIDEARVYKENLKSAFVINRKIVNTAIGRDVGEALGVYPVHVLSANVAQRVIFAEAATQGKTVYEVDKQGLAAAEIEAVAAEIKELAQLEHHHHHH” the “soluble on expression in E. coli” value was “not soluble”.
For “MIIRETERLILREWKESDRDLFREINADEKVMEFFPFRRSHAEADAVLETINGMIRGSGYGFYAMELRETGEVMGFCGISPVMNLDPPFPIGTMEIGWRLATRFWGHGYVTEAAQSLLVMAFDEKETPEIVSFAVHDNHRSTAVMERIGLRRDPSRDFDHPRVPEETHPHLRPHVTYALTLEEWRAR”, the “soluble on expression in E. coli” value was “not soluble”.
With “MIITVASFKGGVGKTTTAVHLSAYLALQGETLLIDGDPNRSATGWGKRGSLPFKVVDERQAAKYAPKYQNIVIDTQARPEDEDLEALADGCDLLVIPSTPDALALDALILTIETLQKLGNNRFRILLTIIPPYPSKDGDEARQLLTTAGLPLFKRGIKRYSAFQKASLNGVVVSEVSDSKAGIAWSDYKATGKEIVEEILILEHHHHHH” the “soluble on expression in E. coli” value was “soluble”.
With “MIKDILNTIASLVEENVVVFASERGKQLLQKVKADLVSFKPINFYALDAGKQITDALKLIESYCIEMNRIFDELNHQSSVSLANEKLTHKIKNILTNLKNKQNKITQLREKIPEGMLDIKRALYIVENSFLSESEPEEKELRSKFKRIKKFMSNSNKEYLDLIKKGGLLNTVLLDTTTLYWNQLHEYSTLLNQCRITLQKSHHLTKEGQLALRCFNSAIQKMPPKKHIINALKILNKPNSKTEAIEKIGFVSPHGREACMQLTCWGKKFFYIPRSEEMYHFDYDPKEDLNETGGNCFGESMMFIHFLSKGAIRWLCPEAGLINFQLDQTRNLKFKKATLGEGETLVSDNSPHDSLEWEDMRPVLLDNPYFKPGSLCGVIFSMNDYTKAKREFTAGHMIVVAKLDTNLNPYKYIIYEKDFGAFGLTDDESLEYLISEQILPLYRGMNYSKIKLVKYGEASTETYDLLNKIKPQTGIPQKESTASDSINTYFDNAFFKLSKETNKENVIDQVNQTDVFGFCRN” the “soluble on expression in E. coli” value was “not soluble”.
With “MIKDQDAEFHVTDSDPTWAETNFFGFFNAEHKLNVGVYALFRPNLGVVSSTICMNSGRAVTPWEADFCDLRSAMPIPTPRSLLDYKLLNTLHVHCLDPNRVWHIGYDDQQGTRIDVRYEALMPAFDIHDPEMDPMCGSESEAGKFAWGTAYDGHFDQTGHFKGSVAIRGREVPIDCVSTMDHSWGARPERGKPNMSWLHAHFSKDLAVHGIFGFDQTRNGVELWLAHGYVMERGRIVGLKAGTGQVERPQERYPEQLQLQVTDAKDRVWKLRGRALTTFPWQCWPNMISFNSLCAWEMNGLKGHGEVQDFFELPQLNALNSVESTRRPSRPL” the “soluble on expression in E. coli” value was “not soluble”.
For “MIKFGTGGWRAFIGEEFTKDNVRLVAQALANIIHHEQAANEGFVIGYDRRFLSDKAGRWFAEVLAANGVVVSFIDKFVPTPVVMFKAKAMDCAYSACITASHNPADYNGIKVFIRGGRDADEVITQKIEQQIATLTLQDVKSIDFDQAVNDKLIDIINPMNEFVDSIINFIDIEAIKKANLRVLIDPMFGVAKNALQTVLINGRCDVDVINDGKNPDFGGLMPSPSAATLYRLKHLVKHEGYDIGIGTDGDADRLGIIDEKGNFIHPNEVLILLYYYLLEYKGWKGSVVRNIATTHLLDKIAADHGERCFEVPVGFKHISSQMEADDSLIGGESSGGLTIRGHIKGKDGVFASSLLVEMISVTGKKLSELLTEIYDRYGYAYTAEGDCKFKPAQRDEIYNKVYIEKKLPEFEFDIDKVSYEDGAKVYFKNGGWVIARFSGTEPLLRIFAEMADKDTAERVLQQMKAFLAL”, the “soluble on expression in E. coli” value was “not soluble”.
In the case of “MIKFYQYKNCTTCKKAAKFLDEYGVSYEPIDIVQHTPTINEFKTIIANTGVEINKLFNTHGAKYRELDLKNKLQTLSDDEKLELLSSDGMLVKRPLAVMGDKITLGFKEDQYKETWLA”, the “soluble on expression in E. coli” value is reported as “not soluble”.
With “MIKHLVAPLVFTSLILTGCQSPQGKFTPEQVAAMQSYGFTESAGDWSLGLSDAILFAKNDYKLLPESQQQIQTMAAKLASTGLTHARMDGHTDNYGEDSYNEGLSLKRANVVADAWAMGGQIPRSNLTTQGLGKKYPIASNKTAQGRAENRRVAVVITTP” the “soluble on expression in E. coli” value was “not soluble”.
With “MIKIDNVKKFYTDKVKIGPLDIEIPKAGFTSLIGPNGAGKSTTLLMIGRLLDMDEGQIQVANMDVSESKSKDLAKVLTILRQENHFVTRLTVRQLVGFGRFPYSKGRLTKEDEVIISKYIDFLDLTNLENRYLDELSGGQRQRAYVAMVLCQETEYVLLDEPLNNLDVARSVQMMEHLRRAANEFGRTILTVMHDINFAAKYSDKICAMKDGQIAAFGTVEEVMDSTLLTDIFETRIEIIKGPYGPIAVY” the “soluble on expression in E. coli” value was “not soluble”.
With “MIKLTVSHHKLTASGHALFAKKGQDIVCAAVSGIIFGALPWFETNSIAVQEDATVPSLSLELVQPTAKLITGLSVVIMQLKTLAHSYPQFISFEDQRKDE” the “soluble on expression in E. coli” value was “soluble”.
In the case of “MIKNGTLKPGDKLLPVHQLAEQFQVGRSAVREALSALRAMGLIEMKQGEGTYVKNFDSSSLTKSLNNRLLMKKEDILNLLEVRKVLEVGAVRVAAAKRTEDNLQNMKHWLDEMAKSIGDEKAGEKADFQFHMGIAESSHNNILLELMNHVSEMIAETIGESRRIILYGEQTTSERLIEEHQVIYDAVLKQDVELAQQAMLDHLTNVEHIVTGKNDINS”, the “soluble on expression in E. coli” value is reported as “not soluble”.
With “MILGIDIGGANTKITELHENGEFKVHHLYFPMWKNNDKLAEVLKTYSNDVSHVALVTTAELADSYETKKEGVDNILNAAESAFGSNISVFDSNGNFISLESAKTNNMKVSASNWCGTAKWVSKNIEENCILVDMGSTTTDIIPIVEGKVVAEKTDLERLMNHELLYVGTLRTPISHLGNTISFKGVDTNVSSEYFAITADISVVLEKVTTEEYTCDTPDGKGTDKRSSLVRISKVLCSDLDQISEIDAENIAKNYYELWKELILENVENVAEKYGSKKVVITGLGENILKDALADFEVISVAERYGKDVSLATPSFAVAELLKNELLEHHHHHH” the “soluble on expression in E. coli” value was “soluble”.
With “MILKPIGVVKSPFKTQNDAPRQGRFSDAVSEIAIFDEYADGLHKIENLRHIIVLYWMDKASRDKLRVVPPGETEERGVFTTRSPSRPNPIGLCVVEILEVERNRLKVRWLDALDGSPVIDIKKYSPEIDCVNQLEGQQPLEHHHHHH” the “soluble on expression in E. coli” value was “soluble”.
With “MILLIDNYDSFTFNLEQYLAEFSEVVVKRNDAADLIKIAALADGIVLSPGPGKPSDAGLLEEVVAKFAKEKPLLGICLGHQAIGEVFGGEVKRAAKIRHGKVSTMRQTAGAIFANLPEEMPVMRYHSLIVDKNTLPDVLEVLAIATDDSEVMAMKVKDYPVYGLQFHPESIGTNDGKQMMENFIHIVEGARENGNLTTKSI” the “soluble on expression in E. coli” value was “not soluble”.
In the case of “MILPDRKQILDRELIRRIADTTISGSGHSDGLSEYASIRKAAFAFVESAVLGDQAYSPIENAELAFIVWILAALDENIITARTIIKARDTVEKQLRLVEHYEDLEEFGSRLGIEISVFGEQIGKDHLYRIGVADFATYASRVTGSKYRLSNQIVREGYVYVDEDVMAKVLREAFVSFMFDTLDQIRKEDAIETIKSVLDDLEKIRESYRKAHNVRMIAGKGDASMFPPCMKEIIKNLESGVNVSHMGRLALASFLHKAGYSEDEIVPYFRNAPDFDENITRYQIKHISGEISGTEYTPPKCETMRSNHLCYMDDDPLCHREWMKHPLTYYEVKRRNRKIRLEHHHHHH”, the “soluble on expression in E. coli” value is reported as “soluble”.
In the case of “MILTEVSQPTEGIKLATTNVQAFFKIDSLGNGTLYITDSAVIWISSAAGTKGFSVAYPAIVLHAISTDVSVFPSEHIFVMVDQRKSVRRRRRAPVLRTIQEDDEQRGLELAAAELEDEESDDDEEEPALEIRFVPDDKDSLSQIYHQIAVGQEENPEEDDPMYDDEEEEMEEEMGDDGQGQSGQWFTADNIDHMQMSEEGLANMQRIFGRGDQHQHHHNEDESME”, the “soluble on expression in E. coli” value is reported as “not soluble”.
With “MILTFNPGKLERQEFFKELINYLWIHDDVTLRKIKSHFTDYSKIDRLLEEYINHGYILRQNKRYSLNLPFLSSLDGLVLDDLVFIDSDSQIYQLLQKRKFVTNLDNPTNHLVFVEETDFERNTLTLSNYFYKLTNGYPLSREQKKLYQLLGDVNSEYALKYMSSFILKFLRKDSVKQKRTVIFIQALELLGYISLNQDTTYRLNAKLDVEALKIYLT” the “soluble on expression in E. coli” value was “not soluble”.

Reference: the DeepSol protein solubility set
